Reference: patent publication US11584938B2, “Plant EPSPS mutant containing L195P and S247G mutations and encoding gene and use thereof” (GEVOTO LLC, priority 2017, dated 2023)
Positions count from the first letter of the chain named.

B1: G0: wild-type soybean EPSPS, amino acid sequence SEQ ID NO: 2; control (protein)
chain: MAAAEKPSTAPEIVLEPIKDISGTITLPGSKSLSNRILLLAALSEGTTVVDNLLYSEDIHYMLGALRTLGLRVEDDQTTKQAIVEGCGGLFPTIKESKDEINLFLGNAGTAMRPLTAAVVAAGGNASYVLDGVPRMRERPIGDLVAGLKQLGADVDCFLGTNCPPVRVNGKGGLPGGKVKLSGSVSSQYLTALLMAAPLALGDVEIEIVDKLISVPYVEMTLKLMERFGVSVEHSGDWDKFLVHGGQKYKSPGNAFVEGDASSASYFLAGAAVTGGTITVNGCGTSSLQGDVKFAEVLEKMGAKVTWSENSVTVTGPPQDSSGQKVLQGIDVNMNKMPDVAMTLAVVALFANGQTTIRDVASWRVKETERMIAICTELRKLGATVEEGPDYCVITPPEKLNVTAIDTYDDHRMAMAFSLAACGDVPVTIKDPGCTRKTFPDYFEVLERFTRH
modifications: Glycine max
notes: control
B2: G1: soybean EPSPS mutant, SEQ ID NO: 4, mutation L212(195)P (protein)
chain: B1 chain with L212P
B3: G2: soybean EPSPS mutant, SEQ ID NO: 6, merely containing the mutation P114(101)S; control (protein)
chain: B1 chain with P114S
B4: G3: soybean EPSPS mutant, SEQ ID NO: 8, mutations L212(195)P and P114(101)S (protein)
chain: B1 chain with P114S, L212P

Test system: transgenic rice plants
Assay: glyphosate resistance of the EPSPS mutant in transgenic rice plants sprayed with Roundup 41% ammonium glyphosate
Assay type: in vivo, rice (Nipponbare)
Description: A method for detecting the glyphosate resistance of G1 (SEQ ID NO: 4) provided in Example 1, G3 (SEQ ID NO: 8) provided in Example 2, G4 (SEQ ID NO: 10) provided in Example 3, the soybean EPSPS mutant G5 (SEQ ID NO: 12) provided in Example 4, T1 (SEQ ID NO: 16) provided in Example 5, T3 (SEQ ID NO: 20) provided in Example 6, T4 (SEQ ID NO: 22) provided in Example 7, T5 (SEQ ID NO: 24) provided in Example 8, the wheat EPSPS mutant T6 (SEQ ID NO: 26) provided in Example 9, R1 (SEQ ID NO: 30) provided in Example 10, R3 (SEQ ID NO: 34) provided in Example 11, R4 (SEQ ID NO: 36) provided in Example 12, R5 (SEQ ID NO: 38) provided in Example 13, and the rice EPSPS mutant R6 (SEQ ID NO: 40) provided in Example 14 in the transgenic rice is as follows:
The plasmids (containing the EPSPS mutation gene) of the monoclonal resistant bacteria of pADV5-EPSPS in Examples 1-7 were extracted by a conventional method, followed by double enzyme digestion by Pac1 and BstEII, the small fragments were collected, and then the small fragments were ligated by using T4 DNA ligase, to the pGVP1 vectors that had undergone the same double enzyme digestion, to obtain a pGVP1-EPSPS vector having a structure as shown in FIG. 23.
EHA105 (Agrobacterium tumefaciens) competent cells were transformed by the pGVP1-EPSPS vector, and single colonies were picked up to perform bacterial colony PCR detection to identify positive strains; then the positive strains were inoculated into 1 mL of YEP culture medium containing 50 μg·mL^−1 kanamycin and 50 μg·mL^−1 rifampin to propagate, and then preserved at −80° C., or used for subsequent experiment.
400 μl of bacterium containing the target gene vector preserved at −80° C. was added to a culture dish of solid culture media containing YEP+50 μg/mL rifampin+50 μg/mL kanamycin, and cultured in the dark at 28° C. for 24 hours, then this bacterium was added to an infection culture medium, and this bacterial solution was adjusted to OD=0.2 as an infection liquid.
Sterilization and pre-culturing: mature rice (Nipponbare) seeds were manually shelled, and full seeds without bacterial plaque were selected, and sterilized according to following steps: putting the seeds into a 50 ml sterile centrifuge tube, adding 70% alcohol for disinfection for 30 seconds, pouring out the alcohol, and cleaning the seeds once with sterile water; adding 10-20 ml of 2.6% sodium hypochlorite solution for soaking and sterilizing for 20 minutes, pouring out the sodium hypochlorite solution, and soaking and cleaning the seeds with sterile water for 6-7 times, 3 minutes each time.
Induction and subculturing: the seeds were put on sterile filter paper for drying, and mature embryos were put in an induction culture medium with 12 embryos in each dish; the culture dishes were sealed with a sealing film after the operation was finished, the mature embryos were cultured in the dark at 30° C. for 21-28 days, calluses were transferred into a fresh culture medium, and continuously cultured for about 7-14 days, and spherical calluses with a size of 1-2 mm were taken as infection receptors.
the calluses were inoculated into a centrifuge tube or a culture cup, the prepared Agrobacterium tumefaciens suspension liquid was added for infection for 10 minutes, wherein the calluses were shaken several times; the bacterial solution was poured out, the calluses were taken out, and placed on sterile filter paper to suck out the surface bacterial solution (about 30 minutes); and the calluses were put on sterile filter paper in a culture dish, and cultured in the dark at 25° C. for 2-3 days.
Recovery culturing: the calluses having undergone co-culturing were inoculated in a recovery culture medium, and cultured in the dark at 30° C. for 5-7 days. First round of screening: the calluses were transferred to screening culture media 1 (S1) and cultured in the dark at 30° C. for 14 days. […]

[1] = 1× dosage 1060 g/hectare glyphosate sprayed, recorded on 10th day
[2] = 2× dosage 2120 g/hectare sprayed to plants surviving 1×, recorded 10 days later
[3] = 5× dosage 5300 g/hectare sprayed to plants surviving 2×, recorded 10 days later
[4] = 20× dosage 21200 g/hectare sprayed to plants surviving 5×, recorded 10 days later

Molecule	%++&+++ (percentage of plant having medium and high glyphosate resistance to the total number of plants observed) [1]	number of plants denoted by + (low glyphosate resistance) [1]	number of plants denoted by ++ (medium glyphosate resistance) [1]	number of plants denoted by +++ (high glyphosate resistance) [1]	number of plants denoted by − (no glyphosate resistance) [1]	glyphosate resistance / survival of the rice transformed by the EPSPS, in words (1× glyphosate dosage)	%++&+++ (percentage of plant having medium and high glyphosate resistance to the total number of plants observed) [2]	number of plants denoted by + (low glyphosate resistance) [2]	number of plants denoted by ++ (medium glyphosate resistance) [2]	number of plants denoted by +++ (high glyphosate resistance) [2]	number of plants denoted by − (no glyphosate resistance) [2]	&++&+++ (percentage of plant having medium and high glyphosate resistance to the total number of plants observed) [3]	number of plants denoted by + (low glyphosate resistance) [3]	number of plants denoted by ++ (medium glyphosate resistance) [3]	number of plants denoted by +++ (high glyphosate resistance) [3]	number of plants denoted by − (no glyphosate resistance) [3]	&++&+++ (percentage of plant having medium and high glyphosate resistance to the total number of plants observed) [4]	number of plants denoted by + (low glyphosate resistance) [4]	number of plants denoted by ++ (medium glyphosate resistance) [4]	number of plants denoted by +++ (high glyphosate resistance) [4]	other results
B1	0.0%	0	0	0	36	had no resistance and died	0.0%	0	0	0	36	0.0%	0	0	0	36	0.0%	0	0	0	number of plants denoted by − (no glyphosate resistance) [4]: 36
B2	16.7%	20	4	2	10	obviously superior to that of the rice seedlings transformed by G0	0.0%	19	0	0	17	0.0%	5	0	0	31	0.0%	0	0	0	number of plants denoted by − (no glyphosate resistance) [4]: 36
B3	47.1%	6	5	3	3	had certain resistance to glyphosate	0.0%	0	0	0	17	0.0%	0	0	0	17	0.0%	0	0	0	glyphosate resistance / survival of the rice transformed by the EPSPS, in words (2× glyphosate dosage): all rice seedlings containing the soybean EPSPS mutant G2 died; glyphosate resistance / survival of the rice transformed by the EPSPS, in words (5× glyphosate dosage): all rice seedlings containing the soybean EPSPS mutant G2 died; number of plants denoted by − (no glyphosate resistance) [4]: 17; glyphosate resistance / survival of the rice transformed by the EPSPS, in words (20× glyphosate dosage): all rice seedlings containing the soybean EPSPS mutant G2 died
B4	57.9%	25	37	7	7	had certain resistance to glyphosate	0.0%	66	0	0	10	0.0%	46	0	0	30	0.0%	8	0	0	glyphosate resistance / survival of the rice transformed by the EPSPS, in words (2× glyphosate dosage): some of the rice seedlings containing the soybean EPSPS mutants G3 and G5 still survived; glyphosate resistance / survival of the rice transformed by the EPSPS, in words (5× glyphosate dosage): some of the rice seedlings containing the soybean EPSPS mutants G3 and G5 still survived; number of plants denoted by − (no glyphosate resistance) [4]: 68; glyphosate resistance / survival of the rice transformed by the EPSPS, in words (20× glyphosate dosage): some of the rice seedlings containing the soybean EPSPS mutants G3 and G5 still survived
